Patent US20260263599A1 (AUTOLUS, published 2026)
Residue numbers refer to the chain shown, from its start.

B1: Jovi Hum 8 (antibody, V domains shown)
VH: QVQLVQSGAEVKKPGASVKVSCKASGYTFTGYVMHWVRQAPGQGLEWMGFINPYNDDIQSNERFRGRVTMTRDTSISTAYMELSRLRSDDTAVYYCARGAGYNFDGAYRFFDFWGQGTMVTVSS
VL: DIVMTQSPLSLPVTPGEPASISCRSSQRLVHSNGNTYLHWYLQKPGQSPRLLIYRVSNRFPGVPDRFSGSGSGTDFTLKISRVEAEDVGVYYCSQSTHVPYTFGQGTKLEIK
notes: also called H-AF 1; humanised antibody with H-AF062256 VH and 3aaz VL
B2: Jovi Hum 16 (antibody, V domains shown)
VH: B1 VH with T74K
VL: B1 VL
notes: also called H-AF 2
B3: Jovi Hum 17 (antibody, V domains shown)
VH: B1 VH with R72S
VL: B1 VL
notes: also called H-AF 3
B4: Jovi Hum 18 (antibody, V domains shown)
VH: B1 VH with R72S, T74K
VL: B1 VL
notes: also called H-AF 4
B5: Jovi Hum 19 (antibody, V domains shown)
VH: B1 VH with M48I
VL: B1 VL
notes: also called H-AF 5
B6: Jovi Hum 20 (antibody, V domains shown)
VH: B1 VH with M48I, T74K
VL: B1 VL
notes: also called H-AF 6
B7: Jovi Hum 21 (antibody, V domains shown)
VH: B1 VH with M48I, R72S
VL: B1 VL
notes: also called H-AF 7
B8: Jovi Hum 26 (antibody, V domains shown)
VH: B1 VH with V20M, R72S, T74K
VL: B1 VL
notes: also called H-AF 12
B9: Jovi Hum 27 (antibody, V domains shown)
VH: B1 VH with V20M, M48I
VL: B1 VL
notes: also called H-AF 13

Target: T1, T Cell Receptor Beta Constant 2 (TRBC2) (human, UniProt A0A5B9 1-144, limits assumed)
T1 construct: ELISA antigen; also called TCR beta constant region 2
Assay: ELISA

T1 sequence (A0A5B9 1-144 limits assumed): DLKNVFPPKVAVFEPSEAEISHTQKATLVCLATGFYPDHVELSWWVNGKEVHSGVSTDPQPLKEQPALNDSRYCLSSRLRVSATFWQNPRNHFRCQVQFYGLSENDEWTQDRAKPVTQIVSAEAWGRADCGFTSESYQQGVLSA

Binding result, no binding:
B1, B2, B3, B4, B5, B6, B7, B8, B9
